Measured values reported in patent publication US20210340232A1, “MONOCLONAL ANTIBODIES AGAINST HUMAN DICKKOPF3 AND USES THEREOF” (Board of Regents, The University of Texas System, priority 2018, published 2021).

Tests used:
[1] = test system: MPSCs; experiment: Proliferation of mouse PSCs by MTS assay at 7 days; assay type: cell-based
Method: FIGS. 12A-D. DKK3 expression in mouse PSCs and effects of treatment with DKKC mAb on survival. (FIG. 12A) Western blot analysis of recombinant human and mouse DKK3 under denaturing and non-denaturing conditions using JM6-6-1 mAb. (FIG. 12B) Expression of murine DKK3 in murine PSCs (MPSC) or 3T3 cells was determined by RT-PCR. 18S was used as loading control. (FIG. 12C) Proliferation of MPSCs treated with DKK3 mAb was measured at 7 days by MTS assay. ***p<0.001 vs. PBS. (FIG. 12D) Pdx1-Cre; Kras LSL-G12D;Trp53fl/+ model of PDAC was treated with DKK3 mAb JM6-6-1 or control mAb JM4-74 (5 mg/kg i.p. q5d). Kaplan-Meier survival curves are shown (log rank test). At 0% survival, the right line is JM6-6-1, the middle lines is PBS, and the left line is Control Ab.
Cell-based assays. Cell proliferation was measured by the MTS assay (Promega, Madison, Wis.). Cell migration and invasion studies with stimulation by recombinant human DKK3 (R&D, Minneapolis, Minn.) were performed using 6.5-mm Transwell® with 8.0-μm pore membrane Insert (Corning Incorporated) and BioCoat Matrigel-coated invasion chambers (BD Biosciences, Bedford, Mass.).

[2] = test system: BxPC3 orthotopic tumors; experiment: Orthotopic BxPC3 tumors without HPSCs in nude mice; assay type: in vivo, mouse; details: BxPC3 alone; 5 mg/kg i.p. once every 5 days; vs PBS or isotype control mAb
Method: FIGS. 11A-C. DKK3 expression in autochthonous model of PDAC and effects of DKK3 mAb on cell surface binding of DKK3 and orthotopic model. (FIG. 11A) DKK3 expression was measured by qPCR in pancreatic tumors from P48-Cre; Kras LSL-G12D;Trp53fl/fl and P48-Cre; Kras LSL-G12D;Trp53fl/+ mice that are either wild type DKK3 or heterozygous or homozygous DKK3-null. Relative expression of DKK3 mRNA in DKK3+/− hetero mice is 53% of DKK3^+/+ mice. (FIG. 11B) DKK3 cell surface binding was assessed by incubating BxPC3 or L3.6p1 cells with His-tagged rhDKK3 (10 μg/ml) with or without JM6-6-1 (70 μg/ml) and positive cells were sorted by flow cytometry. (FIG. 11C) Mice bearing orthotopic BxPC3 tumors were treated with DKK3 mAb JM6-6-1 (5 mg/kg i.p. once every 5 days). Overall tumor progression was measured every 3-4 days by IVIS imaging.
An orthotopic nude mouse model of PDAC using BxPC3 cancer cells labeled with firefly luciferase (BxPC3-FL) co-injected with HPSCs has been previously described (Hwang et al., 2008). Mice received intrapancreatic injections of BxPC3-FL (1×10^6 per mouse) with HPSC-shControl or HPSC-shDKK3 in a tumor-to-stroma ratio of 1:0 or 1:3 in 50-μL of HBSS and tumor growth was monitored using IVIS imaging (Hwang et al., 2008). In addition, a syngeneic immunocompetent DKK3 null model was used, provided by Dr. C. […]

[3] = test system: BxPC3 cells; experiment: BxPC3 resistance to gemcitabine, MTS proliferation assay; assay type: cell-based, human; details: BxPC3, gemcitabine 100 μM, HPSC-CM 10 μg/ml, 6 days
Method: HPSCs and BxPC3 cells were treated with DKK3 mAb clones JM6-6-1 and JM8-12-1 or isotype control mAb or PBS. (FIGS. 5A-B) HPSC apoptosis and migration as measured by FACS and Transwell migration assay at 48 hours. (FIG. 5C) BxPC3 migration in response to rhDKK3 10 μg/ml as measured by Transwell migration assay at 48 hours. (FIG. 5D) BxPC3 resistance to gemcitabine 100 μM as measured by MTS proliferation assay at 6 days. HPSC-CM, pancreatic stellate cell conditioned media, 10 μg/ml. The orthotopic co-injection BxPC3+ HPSC model of PDAC was used to test the efficacy of DKK3 mAb clones JM6-6-1 or JM8-12-1 (5 mg/kg i.p. once every 5 days). (FIG. 5E) Overall tumor progression was measured every 3-4 days by IVIS imaging. (FIG. 5F) Metastatic tumors in the peritoneal cavity after removal of the primary pancreatic tumor are shown by IVIS imaging. (FIG. 5G) Kaplan Meier survival curve showing mice treated with DKK3 mAb clone JM8-12 (right-most line), control mAb (middle line), or PBS (left-most line). (FIG. 5H) KPC mice (P48-Cre; Kras LSL-G12D;Trp53fl/fl) with either wild type DKK3 (solid lines) or deficient in DKK3 (“DKK3-KO,” dashed lines) were treated with DKK3 mAb JM6-6-1 (5 mg/kg i.p. once every 5 days), PBS or control mAb. […]
Cell-based assays. Cell proliferation was measured by the MTS assay (Promega, Madison, Wis.). […]

B1: JM6-6-1: monoclonal antibody against human DKK3; heavy chain variable SEQ ID NO: 19, light chain variable SEQ ID NO: 20 (antibody, V domains shown)
VH: EVKLVESGGGLVKPGGSLKLSCAASGFTFTIEYMAWIRQTPEKRLEWVASISSGGDDIYYADNVKGRFTISRDNAKNTLYLQMSSLKSEDTAIYYCSRSLSDWGQGTTLTVSSAKTTPPSDYPLA
VL: MTQTPLSLPVSLGDQASISCRSSQSILHSNGHTYLEWYLQKPGQSPKLLIYKVSNRFSGVPDRFSGSGSGTDFTLKISRVEAEDLGVYYCFQGSHVPFTFGSGTKLEIERADAAQ
**Q.** B1 was tested. Which “proliferation of mouse PSCs” value [1] did it give?
**A.** The value was “inhibited proliferation”.

**Q.** What about the “tumor response without HPSCs” value [2] of the same molecule?
**A.** The value was “no significant change”.

**Q.** What about the “effect on DKK3-mediated chemoresistance to gemcitabine” value [3] of the same molecule?
**A.** The value was “abrogated the DKK3-mediated induction of chemoresistance to gemcitabine”.
